Consider seven molecules from US20080279856A1, “Inhibition of Bradykinin Release” (Novo Nordisk Pharmaceuticals, Inc., priority 1999, published 2008).

Where a chain is given by its changes, count along the chain named. Numbers in names are those of the source. Entries after “also recorded” stand apart in the source; their conditions may differ.

Test [1] relates to HBP-induced increase in EC permeability. The experiment in a line: Inhibition of HBP-induced increase in EC permeability. It counts as cell-based, human, bovine. The note with it: peptide 3 μg/ml for 30 min, wash; HBP 75 μg/ml; N=6. The source says:
Alternatively, HBP antagonists may be detected by culturing endothelial cells in the presence of HBP and in the presence and absence of a substance suspected of being an antagonist. In a specific embodiment, the antagonist is a monoclonal antibody that binds to at least one epitope of HBP, preferably human HBP, wherein said epitope binds to prekallikrein-H-kininogen complex and activates release of bradykinin. In a preferred embodiment, the monoclonal antibody is a human monoclonal antibody. In one embodiment, the antibody and HBP are preincubated together before incubating with endothelial cells for about 10 minutes at 37° C. The effect of the substance on the permeability of endothelial cells is determined by measuring transendothelial electrical resistance or determining albumin clearance as described in the Examples, infra. A decrease in permeability would indicate that the substance does act as an HBP antagonist.
For measurement of electrical resistance across the EC monolayer, the filter insert is transferred to a resistance measurement chamber (ENDOHM-12; World Precision Instruments, Sarasota, Fla., USA) modified so as to assure exact positioning of the electrodes in relation to each other and to the filter insert during repeated measurements. The chamber (lower compartment) and the filter insert (upper compartment) are filled with 2 ml and 400 μl culture medium, respectively. […] Direct readings of the electrical resistance are given by an ohmmeter (EVOM; World Precision Instruments, Sarasota, Fla., USA) connected to the electrodes of the resistance chamber. The electrical resistance of individual EC monolayers is obtained by subtracting the resistance of the corresponding naked filter coated with Biomatrix as measured prior to seeding of the endothelial cells.
Evans blue dye-conjugated albumin (EBA) is used as a marker for macromolecular permeability of the EC monolayers. […] In experiments where albumin permeability is analyzed, the culture medium in the upper compartment is exchanged for medium containing EBA. […]

Test [2] deals with bradykinin-induced increase in EC permeability. The experiment in a line: Inhibition of bradykinin-induced increase in EC permeability. The note with it: peptide 3 μg/ml for 30 min; bradykinin 100 nM at 15 min after HBP. It counts as cell-based, human, bovine. Here is the method:
For measurement of electrical resistance across the EC monolayer, the filter insert is transferred to a resistance measurement chamber (ENDOHM-12; World Precision Instruments, Sarasota, Fla., USA) modified so as to assure exact positioning of the electrodes in relation to each other and to the filter insert during repeated measurements. The chamber (lower compartment) and the filter insert (upper compartment) are filled with 2 ml and 400 μl culture medium, respectively. All measurements are made at 37° C. with the equipment placed in a cell culture incubator. Direct readings of the electrical resistance are given by an ohmmeter (EVOM; World Precision Instruments, Sarasota, Fla., USA) connected to the electrodes of the resistance chamber. The electrical resistance of individual EC monolayers is obtained by subtracting the resistance of the corresponding naked filter coated with Biomatrix as measured prior to seeding of the endothelial cells.
Before transferring the filter inserts to the resistance measurement chamber (kept at 37° C.), the medium in the insert and in the chamber is replaced with fresh culture medium (37° C.) supplemented with 10 mM Hepes. HBP (25-100 μg/ml) or PMN secretion product is added either to the upper or the lower compartment and change in transendothelial electrical resistance is measured every minute until a plateau phase is reached, and thereafter at 5-min intervals. In separate experiments, PMNs (2×10^6) preincubated with mAb IB4 (10 μg/ml) are added to the upper compartment (PMN:EC ratio=10:1) and allowed to sediment for 10 min. Activation of the PMNs is induced through antibody crosslinking of leukocytic CD18 by addition of goat anti-mouse IgG F(ab′)2 diluted 1:20. In experiments where albumin permeability across the EC monolayer is studied, the medium in the insert contained EBA. During the experiment, the filter insert is moved at 5-10 min intervals to new wells containing fresh medium. All incubations are made at 37° C. After the experiment, the medium in the lower wells is aspirated and analyzed for EBA content.

Test [3] relates to endothelial cells. The experiment in a line: EC response to CD18 cross-linking in PMNs (Ca2+ and TEER). It counts as cell-based, human, bovine. The settings on record: EC pre-treated. Here is the method:
Human umbilical vein endothelial cells (HUVEC) and bovine aorta endothelial cells (BAEC) are isolated and cultured as previously described (Gautam et al. 1998, Brit. J. Pharm. 125:1109-1114). HUVEC or BAEC in the first to fifth passages are detached by brief (2 min) trypsin-EDTA treatment (0.25% trypsin/0.01% EDTA) and replated onto either 0.2 μm pore size Anopore inorganic membrane or 3.0 μm pore size polycarbonate filters (Tissue Culture inserts, 10 mm; NUNC, Roskilde, Denmark). In order to promote cellular differentiation and enhance attachment of endothelial cells (ECs), the filters are pretreated with 50 μl Biomatrix 1 (167 μg/ml) and air-dried. […] The EC are grown to confluent monolayers, as assessed by daily microscopic observation and measurement of the electrical resistance across the monolayer (Gautam et al 1998, Brit. J. Pharm. 125:1109-1114).
Two different approaches are used for assessment of stimulation-induced changes in EC permeability. […] Electrical resistance across the EC monolayer is measured at 37° C. with electrodes in each compartment exactly positioned in relation to each other and to the monolayer. The electrical resistance of individual EC monolayers is obtained by subtracting the resistance of the corresponding naked filter coated with Biomatrix as measured prior to seeding of the endothelial cells. […]

Test [4] addresses aprotinin (Bos taurus, UniProt P00974). The experiment in a line: Ability of HBP variants to bind aprotinin. The class given is binding.
The subject of test [5] is EC permeability. As to the kind of experiment: Leakage model: bradykinin release and EC permeability induced by HBP variants. The class given is cell-based.
The nature of test [6]: 3H-LPS binding to HBP, scintillation proximity assay. The procedure:
The affinity for lipopolysaccharide (3H-LPS) is measured by scintillation proximity assay technology (SPA) as described (Linde, V., Bjørn, S., Kastrup, J. S., and Flodgaard, H., 2000, Biotechniques 28:218-222). All samples are repeated in triplicates.
(In general: In a scintillation proximity assay essentially only radioactivity close to the scintillant gives light.)

The test system of test [7] is human monocytes. The experiment in a line: LPS induced IL-6 release from monocytes. It counts as cell-based. The settings on record: 24 hours, serum-free medium. An excerpt: Human monocytes are isolated and treated as described (Rasmussen, P. B., Bjørn, S., Hastrup, S., Nielsen, P. F., Norris, K., Thim, L., Wiberg, F. C., and Flodgaard, H. (1996) FEBS Lett. 390: 109-112), with the exception that 1% non-essential amino acids is excluded from the medium.

In test [8] the test system is 125I-BPTI. As to the kind of experiment: 125I-BPTI binding to HBP, scintillation proximity assay. Further details: species or system bovine. Here is the method: (§1) The relative affinities of HBP and the mutants are determined by performing competition studies with […] of unlabeled BPTI.
Assay in test [9]: as above
More on the design: species or system bovine. The settings on record: competition with unlabeled BPTI; read-out: apparent IC50 of 125I-BPTI binding. Here is the method: as §1

Regarding “HKHGHGHHKKNKGKKNGKH (listed as Homo sapiens) [HKH20]”, the “effect on HBP-induced increase in EC permeability” value in test [1] is “prevented”. In addition, in [2], the “effect on bradykinin-induced permeability change” value is “but not the permeability change induced by subsequent administration of bradykinin”.

For the molecule `CC(=O)OCOC(=O)CN(CC(=O)OCOC(C)=O)c1ccccc1OCCOc1ccccc1N(CC(=O)OCOC(C)=O)CC(=O)OCOC(C)=O` [BAPTA AM], in test [3], the “effect on change in TEER” value is listed as “completely inhibited” and the “effect on rise in EC free intracellular Ca2+” value is listed as “completely inhibited”.

For “SDDDWIPDIQTDPNGLSFNPISDFPDTTSPK (listed as Homo sapiens) [SDD31]”, in [1], the “effect on HBP-induced increase in EC permeability” value is “largely prevented”. In [2], the “effect on bradykinin-induced permeability change” value was “persisted”.

B1: HBP mutant (G175N): HBP mutant unable to bind aprotinin, three dimensional structure unaltered (protein)
chain: IVGGRKARPRQFPFLASIQNQGRHFCGGALIHARFVMTAASCFQSQNPGVSTVVLGAYDLRRRERQSRQTFSISSMSENGYDPQQNLNDLMLLQLDREANLTSSVTILPLPLQNATVEAGTRCQVAGWGSQRSGGRLSRFPRFVNVTVTPEDQCRPNNVCTGVLTRRGGICNGDNGTPLVCEGLAHGVASFSLGPCGRGPDFFTRVALFRDWIDGVLNNPGP
In the case of B1, the “ability to bind aprotinin” value in [4] was “unable to bind aprotinin”. In addition, the “induction of bradykinin release and EC permeability” value in test [5] was “induces bradykinin release and increase in EC permeability”.

B2: [G175Q]HBP: Mutant of human HBP with G175Q in the BPTI binding site (protein)
chain: B1 chain with N175Q
For the molecule B2, in [6], the “lipid A/LPS binding property” value is given as “comparable to that of native HBP”. Moreover, the “stimulation of LPS induced cytokine-release (IL-6)” value in [7] is reported as “only a very limited stimulation”. In [8], the “binding of BPTI” value is on record as “eliminated; also recorded: no binding”.

B3: [R23S,F25E]HBP: Mutant of human HBP with R23S and F25E in the putative lipid A/LPS binding site (protein)
chain: B1 chain with R23S, F25E, N175G
As for B3, the “lipid A/LPS binding property” value in test [6] is recorded as “do not affect”. Besides, the “stimulation of LPS induced cytokine-release (IL-6)” value in [7] was “do not affect”. In addition, in [8], the “binding capacity for 125I-BPTI” value is on record as “larger binding capacity as compared to HBP” and the “binding of BPTI” value is listed as “do not affect; also recorded: binds BPTI”. The IC50 (as a rule, the point on the concentration scale where inhibition reaches its midpoint) in test [9] is about 7 nM.

B4: porcine HBP: Porcine heparin-binding protein, very homologous to human HBP, unable to bind aprotinin (protein)
chain: IVGGRRAQPQEFPFLASIQKQGRPFCAGALVHPRFVLTAASCFRGKNSGSASVVLGAYDLRQQEQSRQTFSIRSISQNGYDPRQNLNDVLLLQLDREARLTPSVALVPLPPQNATVEAGTNCQVAGWGTQRLRRLFSRFPRVLNVTVTSNPCLPRDMCIGVFSRRGRISQGDRGTPLVCNGLAQGVASFLRRRFRRSSGFFTRVALFRNWIDSVLNNPP
B4: the “ability to bind aprotinin” value in test [4] is “unable to bind aprotinin”.
